{
  "source": "patent US20260092110A1",
  "about": "(Kyowa Kirin, published 2026)",
  "key": {"[1]": {"target": "T1, extracellular domain protein of rat MOG to which GST is added at the C-terminus (rMOG-GST) (rat)", "T1 construct": "whole construct entry", "assay": "SPR Biacore T-100, antibody captured, rMOG-GST analyte", "protocol": "(§1) The antibodies were immobilized on CM5 sensor chips using a Human antibody Capture kit, and the binding abilities were evaluated using rMOG-GST produced in Example 4 as an analyte. The obtained sensorgrams were analyzed with BIA evaluation software, and the dissociation constants (KD values) were thus calculated."}, "[2]": {"target": "T1, extracellular domain protein of rat MOG …", "assay": "SPR Biacore T-100, antibody captured, rMOG-GST analyte; KD not unique (kd outside range)", "protocol": "as §1"}, "[3]": {"target": "T1, extracellular domain protein of rat MOG …", "assay": "SPR Biacore T-100, antibody captured, rMOG-GST analyte; kd outside the measurement range", "protocol": "as §1"}, "[4]": {"target": "T2, rat MOG (rMOG) expressed on HEK293F cells (rat, UniProt Q63345 28-245)", "T2 construct": "also called rMOG/HEK293F", "T2 sequence": "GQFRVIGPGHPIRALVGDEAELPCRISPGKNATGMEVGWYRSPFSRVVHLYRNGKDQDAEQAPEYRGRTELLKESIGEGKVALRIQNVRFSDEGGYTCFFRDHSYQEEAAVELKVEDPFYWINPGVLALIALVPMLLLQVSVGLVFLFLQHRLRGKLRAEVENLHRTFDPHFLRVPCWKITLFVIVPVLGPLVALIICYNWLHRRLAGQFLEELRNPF", "assay": "flow cytometry on HEK293 cells transiently expressing rat MOG; antibody at 10 µg/mL, RPE-labelled goat anti-human antibody; negative control anti-AVM antibody", "protocol": "(§2) rMOG/HEK293F, mMOG/IEK293F, cMOG/HEK293 and hMOG/HEK293 cells were suspended in a Staining Buffer (SB) of PBS containing 0.1% NaN₃ and 1% FBS each at a concentration of 5×10⁵ cells/mL and dispensed to a round-bottom 96-well plate (manufactured by Becton Dickinson).\n(§3) After centrifugation (2000 rpm, 4° C., two minutes), the supernatants were removed, and the antibodies obtained in Example 6 at 10 μg/mL were added to the pellets. After suspending the pellets, the plate was left to stand at ice temperature for 30 minutes. The supernatants were removed after further centrifugation (2000 rpm, 4° C., two minutes), and the pellets were washed with SB. Then, 1 μg/mL RPE fluorescently labeled goat anti-human antibody (manufactured by […]) was added, and the plate was incubated at ice temperature for 30 minutes.\n(§4) After washing with SB, the cells were suspended in SB, and the fluorescence intensities of the cells were measured using a flow cytometer FACS CANTO II (manufactured by Becton Dickinson). As the negative control, an anti-AVM antibody was used."}, "[5]": {"target": "T3, human MOG (hMOG) expressed on HEK293, Expi293F or L929 cells (human, UniProt Q16653 30-247)", "T3 construct": "also called hMOG/HEK293; hMOG/HEK293F", "T3 chain": "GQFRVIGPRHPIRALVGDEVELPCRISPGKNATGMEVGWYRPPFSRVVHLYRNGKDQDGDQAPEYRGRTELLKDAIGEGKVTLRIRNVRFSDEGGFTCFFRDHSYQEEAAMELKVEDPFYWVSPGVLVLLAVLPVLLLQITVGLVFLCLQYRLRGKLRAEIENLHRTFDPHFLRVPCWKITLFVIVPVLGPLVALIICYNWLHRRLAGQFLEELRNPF", "assay": "flow cytometry on HEK293 cells transiently expressing human MOG; antibody at 10 µg/mL, RPE-labelled goat anti-human antibody; negative control anti-AVM antibody", "protocol": "as §2, §3, §4"}, "[6]": {"target": "T4, cynomolgus monkey MOG (cMOG) expressed on HEK293 cells (cynomolgus monkey, UniProt Q9BGS7 30-247)", "T4 construct": "also called cMOG/HEK293", "T4 sequence": "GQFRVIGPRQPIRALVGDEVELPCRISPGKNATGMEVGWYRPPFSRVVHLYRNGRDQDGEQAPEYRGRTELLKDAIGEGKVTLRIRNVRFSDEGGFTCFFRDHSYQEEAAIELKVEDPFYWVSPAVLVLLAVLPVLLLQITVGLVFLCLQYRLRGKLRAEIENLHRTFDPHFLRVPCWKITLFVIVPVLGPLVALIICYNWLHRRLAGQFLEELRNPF", "assay": "flow cytometry on HEK293 cells transiently expressing cynomolgus monkey MOG; antibody at 10 µg/mL, RPE-labelled goat anti-human antibody; negative control anti-AVM antibody", "protocol": "as §2, §3, §4"}},
  "data": [
    {"binder": "MOG09 antibody (anti-MOG human IgG antibody expressed from N5LG4PE_MOG09) (antibody, V domains shown) VH: QVQLQESGPGLVKSSETLSLTCAVSGHSISSAYYWGWIRQPPGKGLEWLGSIYHSGNTYYNPSLKSRVTISVDTSKNQFSLRLTSVTAADTAVYYCARGRGYSGYDSGMDVWGQGTTVTVSS VL: SYVLTQPPSASGTPGQRVTISCSGTSSNIGINSVNWYQQLPGMAPKLVIYSRDQRPSGVPDRFSGSQSGTSASLAINGLQSEDEADYWCSTWDDSLNGWVFGGGTKLTVL", "values": [
      {"measurement": "kon", "setting": "[1]", "result": 9000, "unit": "M⁻¹ s⁻¹"},
      {"measurement": "Kd", "setting": "[2]", "result": 0.021, "unit": "nM"},
      {"measurement": "koff", "setting": "[3]", "result": "1.9e-07", "unit": "s⁻¹"},
      {"measurement": "binding result", "setting": "[4]", "result": "binds"},
      {"measurement": "binding result", "setting": "[5]", "result": "binds"},
      {"measurement": "binding result", "setting": "[6]", "result": "binds"}
    ]}
  ]
}
